Laboratory results taken from patent US20050080013A1 (Pfizer, published 2005).
Non-standard residues stand in square brackets, D forms with d. No end group written: not given here. Nal = naphthylalanine (isomer not specified); Aib = CC(C)(N)C(=O)O

T1: lecithin:cholesterol acyltransferase (LCAT), purified from human plasma (human, UniProt P04180 25-440)
T1 sequence (looked up): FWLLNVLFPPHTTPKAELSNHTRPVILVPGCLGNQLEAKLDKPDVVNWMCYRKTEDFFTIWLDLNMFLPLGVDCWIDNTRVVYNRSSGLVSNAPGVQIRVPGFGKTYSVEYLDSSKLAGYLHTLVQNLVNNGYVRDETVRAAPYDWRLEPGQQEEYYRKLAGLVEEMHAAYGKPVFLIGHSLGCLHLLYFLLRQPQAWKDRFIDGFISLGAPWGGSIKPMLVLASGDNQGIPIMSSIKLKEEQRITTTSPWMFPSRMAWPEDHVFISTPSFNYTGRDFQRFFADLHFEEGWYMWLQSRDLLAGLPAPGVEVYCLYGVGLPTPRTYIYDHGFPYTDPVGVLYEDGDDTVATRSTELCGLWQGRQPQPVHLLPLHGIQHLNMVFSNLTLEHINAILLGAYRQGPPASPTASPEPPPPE


What follows are binders tested against T1, lecithin:cholesterol acyltransferase … (assay: cell-based or functional assay).

| Binder | ACTIVITY (%) LCAT |
| --- | --- |
| PVLDEFWEKLNE[Aib]LEALKQKLK [peptide 73] | 10% |
| PVLDEFREKLNE[Aib]LEALKQKL [peptide 58] | 18% |
| PWLDEFREKLNE[Aib]LEALKQKLK [peptide 64] | 15% |
| PVLDEFREKLNE[Aib]LEALKQKLK [peptide 45] | 24% |
| PVLDLFRELLWE[Aib]LEALKQKLK [peptide 50] | 21% |
| PVLDEFREKLWE[Aib]LEALKQKLK [peptide 43] | 25% |
| PVLDLFREKLNE[Aib]LEALKQKLK [peptide 46] | 23% |
| PVLDLFREKLNELLEALKQKLK [peptide 33] | 33% |
| PVLDLFKELLNELLEALKQKLK [peptide 7] | 83% |
| PVLDLFRNLLEELLEALQKKLK [peptide 66] | 15% |
| PVLDLWRELLNE[Aib]LEALKQKLK [peptide 41] | 25% |
| VLDLFRELLNELLEALKQKLK [peptide 67] | 14% |
| PVLDEFRKKLNE[Aib]LEALKQKLK [peptide 69] | 13% |
| PVLDLFRNLLEELLKALEQKLK [peptide 57] | 18% |
| VLDLFRELLNEGLEALKQKLK [peptide 47] | 23% |
| PVLDEFRELLYE[Aib]LEALKQKLK [peptide 70] | 12% |
| PVLDLFRELLEELLKALKKKLK [peptide 39] | 25% |
| [Aib]VLDLFRELLNELLEALKQKLK [peptide 32] | 33% |
| PVLDEFREKLNEL[Aib]EALKQKLK [peptide 71] | 11% |
| PVLDWFRELLNELLEALKQKLK [peptide 35] | 31% |
| XVLDLFRELLNELLEALKQKLKK (D-Pro (p) at 1) [peptide 5] | 90% |
| PVWDEFREKLNE[Aib]LEALKQKLK [peptide 52] | 20% |
| PVLDLFRNLLEKLLEALEQKLK [peptide 49] | 22% |

| Binder | ACTIVITY (%) LCAT |
| --- | --- |
| PVLDEFRELLKE[Aib]LEALKQKLK [peptide 68] | 14% |
| PVLDEFRWKLNE[Aib]LEALKQKLK [peptide 61] | 16% |
| PVLDLFRELLNE[Aib]LWALKQKLK [peptide 72] | 11% |
| PLLELLKELLQELLEALKQKLK [peptide 36] | 31% |
| PVLDLFRELLNELLEALKQKLK [peptide 4] | 93% |
| PVLDLFRELLNELLEALKQKKK [peptide 56] | 18% |
| PVLDLFRELLNE[Aib]LEAWKQKLK [peptide 38] | 29% |
| PVLDLFRELLNELLEALKQ [peptide 60] | 16% |
| PVLDLFRELLNE[Aib]LEALKQKLK [peptide 6] | 80% |
| PVLDLFRELLNEWLEALKQKLK [peptide 54] | 19% |
| XXLDLFRELLNELLEALKQKLK (D-Pro (p) at 1, D-Val (v) at 2) [peptide 48] | 22% |
| [dP][dV][dL][dD][dE][dF][dR][dE][dK][dL][dN][dE][Aib][dL][dE][dA][dL][dK][dQ][dK][dL][dK] [peptide 44] | 25% |
| PVLD[Nal]FRELLNELLEALKQKLK (not fully specified) [peptide 34] | 32% |
| PVLDFFREKLNE[Aib]LEALKQKLK [peptide 63] | 16% |
| PVLDLFREWLNELLEALKQKLK [peptide 37] | 29% |
| PVLDEWREKLNE[Aib]LEALKQKLK [peptide 62] | 16% |
| VVLDLFRELLNELLEALKQKLK [peptide 53] | 19% |
| PVLDLFNELLRELLEALQKKLK [peptide 40] | 25% |
| PLFRELLNELLEALKQKLK [peptide 55] | 19% |
| VLDEFREKLNE[Aib]LEALKQKLK [peptide 65] | 15% |
| LVLDLFRELLNELLEALKQKLK [peptide 59] | 17% |
| PVLDEFREKLNE[Aib]WEALKQKLK [peptide 42] | 25% |
| PVLDLFWELLNE[Aib]LEALKQKLK [peptide 51] | 20% |
